From patent US20250304965A1, “DOUBLE-STRANDED RNA MOLECULE AND PHARMACEUTICAL USE THEREOF” (MACAU UNIVERSITY OF SCIENCE AND TECHNOLOGY, priority 2022, published 2025)
Read-outs that look alike come from different tables or passages of the source. [Ψ] = pseudouridine

Tests used:
Type in all cases: cell-based, human
A2780 cells = test: MTT cytotoxicity analysis, ovarian cancer cells A2780; conditions: for inhibition of growth and proliferation (cell viability vs control and RNAiMAX group): ovarian cancer cells A2780, 6.25-200 nM, 48 hours, FIG. 6-8; for IC50: A2780 ovarian cancer cells, 48 hours of treatment, Lipofectamine RNAiMAX transfection reagent, MTT, read-out: Median inhibitory concentration IC50
Description: (§1) A2780 and HCT-8 cell lines were cultured in RPMI 1640 medium containing 10% FBS and 1% penicillin/streptomycin. HepG2 cell lines were cultured in MEM medium containing 10% FBS and 1% penicillin/streptomycin. All the above cell lines were cultured at 37° C. in a humidified atmosphere containing 5% CO2.
(§2) In the cytotoxicity analysis, exponentially growing cells of each cancer cell line were inoculated at a density of 5000 cells per well in a 100 μL medium in a 96-well microplate and allowed to adhere for 24 hours prior to treatment. Then obtained RNA molecules at successive concentrations with a nucleic acid transfer vector, namely, Lipofectamine™ RNAiMAX transfection reagent (Thermo Fisher Scientific, United States), were added to the cells. After 48 hours of treatment, MTT solution (50 μL per well, 1 mg/mL solution) was added to each well and incubated at 37° C. for 4 hours. Then 200 μL of dimethyl sulfoxide (DMSO) was added, and an optical density of the resulting solution was measured via calorimetry by using SpectraMax 190 microplate reader (Molecular Devices, United States) at 570 nm. Dose-response curves were obtained and IC50 values were calculated via GraphPad Prism 5 (GraphPad, United States). Each experiment was performed three times.
(§3) Before addition of the MTT solution, the inventor determined the cytotoxic effects and IC 50 of the GL1, GL2, GL4, and GL6 mimics at different concentrations of 6.25 nM, 12.5 nM, 25 nM, 50 nM, 100 nM, and 200 nM on A2780, HCT-8 and HepG2 cells. After 48 hours of the treatment of the double-stranded RNA molecules, the cell viability of these cells was compared with that of the control group and the RNAiMAX group. Paclitaxel was used in a comparative example. […] The results were compared with those of the control group and the RNAiMAX group using the transfection agent. For IC50, refer to Table 4. Paclitaxel was used in a comparative example.
(§4) Then the inventor specifically determined the cytotoxic effects and IC50 of the RNA molecules GL2 mimic and different chemically modified GL10, GL11 and GL12 mimics at different concentrations of 6.25 nM, 12.5 nM, 25 nM, 50 nM, 100 nM, and 200 nM on A2780, HCT-8 and HepG2 cells. […] For IC50, refer to Table 5. Paclitaxel was used in a comparative example.

HCT-8 cells = test: MTT cytotoxicity analysis, colorectal cancer cells HCT-8; conditions: for inhibition of growth and proliferation (cell viability vs control and RNAiMAX group): colon cancer cells HCT-8, 6.25-200 nM, 48 hours, FIG. 6-8; for IC50: HCT-8 colorectal cancer cells, 48 hours of treatment, Lipofectamine RNAiMAX transfection reagent, MTT, read-out: Median inhibitory concentration IC50
Description: as §1, §2, §3, §4

HepG2 cells = test: MTT cytotoxicity analysis, liver cancer cells HepG2; conditions: for inhibition of growth and proliferation (cell viability vs control and RNAiMAX group): liver cancer cells HepG2, 6.25-200 nM, 48 hours, FIG. 6-8; for IC50: HepG2 liver cancer cells, 48 hours of treatment, Lipofectamine RNAiMAX transfection reagent, MTT, read-out: Median inhibitory concentration IC50
Description: as §1, §2, §3, §4

| Molecule | inhibition of growth and proliferation (cell viability vs control and RNAiMAX group) (A2780 cells) | inhibition of growth and proliferation (cell viability vs control and RNAiMAX group) (HCT-8 cells) | inhibition of growth and proliferation (cell viability vs control and RNAiMAX group) (HepG2 cells) | IC50 (HCT-8 cells) [µM] | IC50 (HepG2 cells) [µM] | IC50 (A2780 cells; Homo sapiens) [µM] | IC50 (HCT-8 cells; Homo sapiens) [µM] | IC50 (HepG2 cells; Homo sapiens) [µM] | IC50 (A2780 cells) [µM] | inhibition of growth and proliferation (cell viability vs control and RNAiMAX group) (A2780 cells; listed as GL2) | inhibition of growth and proliferation (cell viability vs control and RNAiMAX group) (HCT-8 cells; listed as GL2) | inhibition of growth and proliferation (cell viability vs control and RNAiMAX group) (HepG2 cells; listed as GL2) |
| --- | --- | --- | --- | --- | --- | --- | --- | --- | --- | --- | --- | --- |
| GL5: double-stranded RNA from Ganoderma lucidum tRNA-Ile(GAU); antisense SEQ ID NO: 6, sense SEQ ID NO: 15, length 19 (antisense AAGCCUAUAAUUUAAAGGU; sense ACCUUUAAAUUAUAGGCUU; RNA, backbone not given here) | have the effect of inhibiting the growth and proliferation of cancer cells | have the effect of inhibiting the growth and proliferation of cancer cells | have the effect of inhibiting the growth and proliferation of cancer cells |  |  |  |  |  |  |  |  |  |
| GL4 mimic: double-stranded RNA from Ganoderma lucidum tRNA-Ile(GAU); antisense SEQ ID NO: 5, sense SEQ ID NO: 14, length 22 (antisense AAGCCUAUAAUUUAAAGGUAGA; sense UCUACCUUUAAAUUAUAGGCUU; RNA, backbone not given here) | effective in inhibiting growth and proliferation | effective in inhibiting growth and proliferation | effective in inhibiting growth and proliferation | 0.95 | 0.35 |  |  |  |  |  |  |  |
| GL6 mimic: double-stranded RNA from Ganoderma lucidum tRNA-Ile(GAU); antisense SEQ ID NO: 7, sense SEQ ID NO: 16, length 22 (antisense UCGAUUCUUCUUGGGCUUACCA; sense UGGUAAGCCCAAGAAGAAUCGA; RNA, backbone not given here) | effective in inhibiting growth and proliferation | effective in inhibiting growth and proliferation | effective in inhibiting growth and proliferation | 0.6 | 0.4 |  |  |  |  |  |  |  |
| GL9: double-stranded RNA from Ganoderma lucidum tRNA-Ile(GAU); antisense SEQ ID NO: 10, sense SEQ ID NO: 19, length 19 (antisense UCGAUUCUUCUUGGGCUUA; sense UAAGCCCAAGAAGAAUCGA; RNA, backbone not given here) | have the effect of inhibiting the growth and proliferation of cancer cells | have the effect of inhibiting the growth and proliferation of cancer cells | have the effect of inhibiting the growth and proliferation of cancer cells |  |  |  |  |  |  |  |  |  |
| CC(=O)O[C@H]1C(=O)[C@@]2(C)[C@H]([C@H](OC(=O)c3ccccc3)[C@]3(O)C[C@H](OC(=O)[C@H](O)[C@@H](NC(=O)c4ccccc4)c4ccccc4)C(C)=C1C3(C)C)[C@]1(OC(C)=O)CO[C@@H]1C[C@@H]2O [Taxol, Paclitaxel, reference compound] |  |  |  |  |  | 0.0732 | 0.621 | 0.678 |  |  |  |  |
| GL8: double-stranded RNA from Ganoderma lucidum tRNA-Ile(GAU); antisense SEQ ID NO: 9, sense SEQ ID NO: 18, length 22 (antisense AGUUCGAUUCUUCUUGGGCUUA; sense UAAGCCCAAGAAGAAUCGAACU; RNA, backbone not given here) | have the effect of inhibiting the growth and proliferation of cancer cells | have the effect of inhibiting the growth and proliferation of cancer cells | have the effect of inhibiting the growth and proliferation of cancer cells |  |  |  |  |  |  |  |  |  |
| GL7: double-stranded RNA from Ganoderma lucidum tRNA-Ile(GAU); antisense SEQ ID NO: 8, sense SEQ ID NO: 17, length 19 (antisense AUUCUUCUUGGGCUUACCA; sense UGGUAAGCCCAAGAAGAAU; RNA, backbone not given here) | have the effect of inhibiting the growth and proliferation of cancer cells | have the effect of inhibiting the growth and proliferation of cancer cells | have the effect of inhibiting the growth and proliferation of cancer cells |  |  |  |  |  |  |  |  |  |
| GL1 mimic: double-stranded RNA from Ganoderma lucidum tRNA-Ile(GAU); antisense SEQ ID NO: 2, sense SEQ ID NO: 11, length 33 (nucleic acid, RNA, backbone not given here) antisense: AAGCCUAUAAUUUAAAGGUAGAAUAAUUUCUUG sense: CAAGAAAUUAUUCUACCUUUAAAUUAUAGGCUU | effective in inhibiting growth and proliferation | effective in inhibiting growth and proliferation | effective in inhibiting growth and proliferation | 0.084 | 0.35 |  |  |  | 0.225 |  |  |  |
| GL2 mimic: double-stranded RNA from Ganoderma lucidum tRNA-Ile(GAU); antisense SEQ ID NO: 3, sense SEQ ID NO: 12, length 41 (nucleic acid, RNA, backbone not given here) antisense: AUAAGGAAUCUGUAGAAGUUCGAUUCUUCUUGGGCUUACCA sense: UGGUAAGCCCAAGAAGAAUCGAACUUCUACAGAUUCCUUAU | have a dose-dependent effect on inhibiting the growth and proliferation | have a dose-dependent effect on inhibiting the growth and proliferation | have a dose-dependent effect on inhibiting the growth and proliferation | 0.0363 | 0.24 |  |  |  | 0.0572 | effective in inhibiting growth and proliferation | effective in inhibiting growth and proliferation | effective in inhibiting growth and proliferation |
| GL10 mimic: chemically modified GL2 double-stranded RNA (5-methyluridine and pseudouridine); antisense SEQ ID NO: 20, sense SEQ ID NO: 24, length 41 (nucleic acid, antisense: RNA, [Ψ] at 20, backbone not given here; sense: RNA, backbone not given here; further chemistry not fully specified) antisense: AUAAGGAAUCUGUAGAAGTUCGAUUCUUCUUGGGCUUACCA sense: UGGUAAGCCCAAGAAGAAUCGAACUUCUACAGAUUCCUUAU | have a dose-dependent effect on inhibiting the growth and proliferation | have a dose-dependent effect on inhibiting the growth and proliferation | have a dose-dependent effect on inhibiting the growth and proliferation | 0.0396 | 0.144 |  |  |  | 0.0519 |  |  |  |
| GL11 mimic: chemically modified GL2 double-stranded RNA (5-methyluridine); antisense SEQ ID NO: 21, sense SEQ ID NO: 25, length 41 (nucleic acid, RNA, backbone not given here; further chemistry not fully specified) antisense: AUAAGGAAUCUGUAGAAGTUCGAUUCUUCUUGGGCUUACCA sense: UGGUAAGCCCAAGAAGAAUCGAACUUCUACAGAUUCCUUAU | have a dose-dependent effect on inhibiting the growth and proliferation | have a dose-dependent effect on inhibiting the growth and proliferation | have a dose-dependent effect on inhibiting the growth and proliferation | 0.0315 | 0.0853 |  |  |  | 0.0172 |  |  |  |
